Source: paper PMC5074368

Assays:
[1] = molecular target: TOM1 in the prey vector pVP16 (UniProt O60784); assay: mammalian two-hybrid assay; conditions: n = 3; parent: est. 100; read off a plot
[2] = molecular target: Dab2 in the prey vector pVP16 (UniProt P98082); assay: mammalian two-hybrid assay; conditions: n = 5; parent: est. 100; read off a plot
[3] = molecular target: F-actin (cellular actin filaments of RPE cells), P60709; assay: cell fractionation into supernatant and F-actin-enriched pellet, quantitative immunoblotting; conditions: chain shown with the change, n = 3, parent: est. 1.3, read off a plot

Molecule | percent of parent (% wildtype control) [1] | percent of parent (% wildtype control) [2] | other: pellet:supernatant (P:S) ratio [3]
Myosin VI globular tail (amino acids 1036–1294), wild type, in the bait vector pM E1251A | 73 | 66 | 
Myosin VI globular tail (amino acids 1036–1294), wild type, in the bait vector pM E1254A | 87 | 88 | 
Myosin VI globular tail (amino acids 1036–1294), wild type, in the bait vector pM I1252A | 110 | 260 | 
Myosin VI globular tail (amino acids 1036–1294), wild type, in the bait vector pM R1255A | 99 | 60 | 
GFP-tagged full-length myosin VI-NI, wild type, Q9UM54-1 W1253A (protein) MEDGKPVWAPHPTDGFQMGNIVDIGPDSLTIEPLNQKGKTFLALINQVFPAEEDSKKDVEDNCSLMYLNEATLLHNIKVRYSKDRIYTYVANILIAVNPYFDIPKIYSSEAIKSYQGKSLGTRPPHVFAIADKAFRDMKVLKMSQSIIVSGESGAGKTENTKFVLRYLTESYGTGQDIDDRIVEANPLLEAFGNAKTVRNNNSSRFGKFVEIHFNEKSSVVGGFVSHYLLEKSRICVQGKEERNYHIFYRLCAGASEDIREKLHLSSPDNFRYLNRGCTRYFANKETDKQILQNRKSPEYLKAGSMKDPLLDDHGDFIRMCTAMKKIGLDDEEKLDLFRVVAGVLHLGNIDFEEAGSTSGGCNLKNKSAQSLEYCAELLGLDQDDLRVSLTTRVMLTTAGGTKGTVIKVPLKVEQANNARDALAKTVYSHLFDHVVNRVNQCFPFETSSYFIGVLDIAGFEYFEHNSFEQFCINYCNEKLQQFFNERILKEEQELYQKEGLGVNEVHYVDNQDCIDLIEAKLVGILDILDEENRLPQPSDQHFTSAVHQKHKDHFRLTIPRKSKLAVHRNIRDDEGFIIRHFAGAVCYETTQFVEKNNDALHMSLESLICESRDKFIRELFESSTNNNKDTKQKAGKLSFISVGNKFKTQLNLLLDKLRSTGASFIRCIKPNLKMTSHHFEGAQILSQLQCSGMVSVLDLMQGGYPSRASFHELYNMYKKYMPDKLARLDPRLFCKALFKALGLNENDYKFGLTKVFFRPGKFAEFDQIMKSDPDHLAELVKRVNHWLTCSRWKKVQWCSLSVIKLKNKIKYRAEACIKMQKTIRMWLCKRRHKPRIDGLVKVGTLKKRLDKFNEVVSVLKDGKPEMNKQIKNLEISIDTLMAKIKSTMMTQEQIQKEYDALVKSSEELLSALQKKKQQEEEAERLRRIQEEMEKERKRREEDEKRRRKEEEERRMKLEMEAKRKQEEEERKKREDDEKRIQAEVEAQLARQKEEESQQQAVLEQERRDRELALRIAQSEAELISDEAQADLALRRNDGTRPKMTPEQMAKEMSEFLSRGPAVLATKAAAGTKKYDLSKWKYAELRDTINTSCDIELLAACREEFHRRLKVYHAWKSKNKKRNTETEQRAPKSVTDYDFAPFLNNSPQQNPAAQIPARQREIEMNRQQRFFRIPFIRPADQYKDPQSKKKGWWYAHFDGPWIARQMELHPDKPPILLVAGKDDMEMCELNLEETGLTRKRGAEILPRQFEEIAERCGGIQYLQNAIESRQARPTYATAMLQSLLK |  |  | 2.2
GFP-tagged full-length myosin VI-NI, wild type, Q9UM54-1 I1252A (protein) MEDGKPVWAPHPTDGFQMGNIVDIGPDSLTIEPLNQKGKTFLALINQVFPAEEDSKKDVEDNCSLMYLNEATLLHNIKVRYSKDRIYTYVANILIAVNPYFDIPKIYSSEAIKSYQGKSLGTRPPHVFAIADKAFRDMKVLKMSQSIIVSGESGAGKTENTKFVLRYLTESYGTGQDIDDRIVEANPLLEAFGNAKTVRNNNSSRFGKFVEIHFNEKSSVVGGFVSHYLLEKSRICVQGKEERNYHIFYRLCAGASEDIREKLHLSSPDNFRYLNRGCTRYFANKETDKQILQNRKSPEYLKAGSMKDPLLDDHGDFIRMCTAMKKIGLDDEEKLDLFRVVAGVLHLGNIDFEEAGSTSGGCNLKNKSAQSLEYCAELLGLDQDDLRVSLTTRVMLTTAGGTKGTVIKVPLKVEQANNARDALAKTVYSHLFDHVVNRVNQCFPFETSSYFIGVLDIAGFEYFEHNSFEQFCINYCNEKLQQFFNERILKEEQELYQKEGLGVNEVHYVDNQDCIDLIEAKLVGILDILDEENRLPQPSDQHFTSAVHQKHKDHFRLTIPRKSKLAVHRNIRDDEGFIIRHFAGAVCYETTQFVEKNNDALHMSLESLICESRDKFIRELFESSTNNNKDTKQKAGKLSFISVGNKFKTQLNLLLDKLRSTGASFIRCIKPNLKMTSHHFEGAQILSQLQCSGMVSVLDLMQGGYPSRASFHELYNMYKKYMPDKLARLDPRLFCKALFKALGLNENDYKFGLTKVFFRPGKFAEFDQIMKSDPDHLAELVKRVNHWLTCSRWKKVQWCSLSVIKLKNKIKYRAEACIKMQKTIRMWLCKRRHKPRIDGLVKVGTLKKRLDKFNEVVSVLKDGKPEMNKQIKNLEISIDTLMAKIKSTMMTQEQIQKEYDALVKSSEELLSALQKKKQQEEEAERLRRIQEEMEKERKRREEDEKRRRKEEEERRMKLEMEAKRKQEEEERKKREDDEKRIQAEVEAQLARQKEEESQQQAVLEQERRDRELALRIAQSEAELISDEAQADLALRRNDGTRPKMTPEQMAKEMSEFLSRGPAVLATKAAAGTKKYDLSKWKYAELRDTINTSCDIELLAACREEFHRRLKVYHAWKSKNKKRNTETEQRAPKSVTDYDFAPFLNNSPQQNPAAQIPARQREIEMNRQQRFFRIPFIRPADQYKDPQSKKKGWWYAHFDGPWIARQMELHPDKPPILLVAGKDDMEMCELNLEETGLTRKRGAEILPRQFEEAWERCGGIQYLQNAIESRQARPTYATAMLQSLLK |  |  | 1
GFP-tagged full-length myosin VI-NI, wild type, Q9UM54-1 E1254A (protein) MEDGKPVWAPHPTDGFQMGNIVDIGPDSLTIEPLNQKGKTFLALINQVFPAEEDSKKDVEDNCSLMYLNEATLLHNIKVRYSKDRIYTYVANILIAVNPYFDIPKIYSSEAIKSYQGKSLGTRPPHVFAIADKAFRDMKVLKMSQSIIVSGESGAGKTENTKFVLRYLTESYGTGQDIDDRIVEANPLLEAFGNAKTVRNNNSSRFGKFVEIHFNEKSSVVGGFVSHYLLEKSRICVQGKEERNYHIFYRLCAGASEDIREKLHLSSPDNFRYLNRGCTRYFANKETDKQILQNRKSPEYLKAGSMKDPLLDDHGDFIRMCTAMKKIGLDDEEKLDLFRVVAGVLHLGNIDFEEAGSTSGGCNLKNKSAQSLEYCAELLGLDQDDLRVSLTTRVMLTTAGGTKGTVIKVPLKVEQANNARDALAKTVYSHLFDHVVNRVNQCFPFETSSYFIGVLDIAGFEYFEHNSFEQFCINYCNEKLQQFFNERILKEEQELYQKEGLGVNEVHYVDNQDCIDLIEAKLVGILDILDEENRLPQPSDQHFTSAVHQKHKDHFRLTIPRKSKLAVHRNIRDDEGFIIRHFAGAVCYETTQFVEKNNDALHMSLESLICESRDKFIRELFESSTNNNKDTKQKAGKLSFISVGNKFKTQLNLLLDKLRSTGASFIRCIKPNLKMTSHHFEGAQILSQLQCSGMVSVLDLMQGGYPSRASFHELYNMYKKYMPDKLARLDPRLFCKALFKALGLNENDYKFGLTKVFFRPGKFAEFDQIMKSDPDHLAELVKRVNHWLTCSRWKKVQWCSLSVIKLKNKIKYRAEACIKMQKTIRMWLCKRRHKPRIDGLVKVGTLKKRLDKFNEVVSVLKDGKPEMNKQIKNLEISIDTLMAKIKSTMMTQEQIQKEYDALVKSSEELLSALQKKKQQEEEAERLRRIQEEMEKERKRREEDEKRRRKEEEERRMKLEMEAKRKQEEEERKKREDDEKRIQAEVEAQLARQKEEESQQQAVLEQERRDRELALRIAQSEAELISDEAQADLALRRNDGTRPKMTPEQMAKEMSEFLSRGPAVLATKAAAGTKKYDLSKWKYAELRDTINTSCDIELLAACREEFHRRLKVYHAWKSKNKKRNTETEQRAPKSVTDYDFAPFLNNSPQQNPAAQIPARQREIEMNRQQRFFRIPFIRPADQYKDPQSKKKGWWYAHFDGPWIARQMELHPDKPPILLVAGKDDMEMCELNLEETGLTRKRGAEILPRQFEEIWARCGGIQYLQNAIESRQARPTYATAMLQSLLK |  |  | 0.97
GFP-tagged full-length myosin VI-NI, wild type, Q9UM54-1 R1255A (protein) MEDGKPVWAPHPTDGFQMGNIVDIGPDSLTIEPLNQKGKTFLALINQVFPAEEDSKKDVEDNCSLMYLNEATLLHNIKVRYSKDRIYTYVANILIAVNPYFDIPKIYSSEAIKSYQGKSLGTRPPHVFAIADKAFRDMKVLKMSQSIIVSGESGAGKTENTKFVLRYLTESYGTGQDIDDRIVEANPLLEAFGNAKTVRNNNSSRFGKFVEIHFNEKSSVVGGFVSHYLLEKSRICVQGKEERNYHIFYRLCAGASEDIREKLHLSSPDNFRYLNRGCTRYFANKETDKQILQNRKSPEYLKAGSMKDPLLDDHGDFIRMCTAMKKIGLDDEEKLDLFRVVAGVLHLGNIDFEEAGSTSGGCNLKNKSAQSLEYCAELLGLDQDDLRVSLTTRVMLTTAGGTKGTVIKVPLKVEQANNARDALAKTVYSHLFDHVVNRVNQCFPFETSSYFIGVLDIAGFEYFEHNSFEQFCINYCNEKLQQFFNERILKEEQELYQKEGLGVNEVHYVDNQDCIDLIEAKLVGILDILDEENRLPQPSDQHFTSAVHQKHKDHFRLTIPRKSKLAVHRNIRDDEGFIIRHFAGAVCYETTQFVEKNNDALHMSLESLICESRDKFIRELFESSTNNNKDTKQKAGKLSFISVGNKFKTQLNLLLDKLRSTGASFIRCIKPNLKMTSHHFEGAQILSQLQCSGMVSVLDLMQGGYPSRASFHELYNMYKKYMPDKLARLDPRLFCKALFKALGLNENDYKFGLTKVFFRPGKFAEFDQIMKSDPDHLAELVKRVNHWLTCSRWKKVQWCSLSVIKLKNKIKYRAEACIKMQKTIRMWLCKRRHKPRIDGLVKVGTLKKRLDKFNEVVSVLKDGKPEMNKQIKNLEISIDTLMAKIKSTMMTQEQIQKEYDALVKSSEELLSALQKKKQQEEEAERLRRIQEEMEKERKRREEDEKRRRKEEEERRMKLEMEAKRKQEEEERKKREDDEKRIQAEVEAQLARQKEEESQQQAVLEQERRDRELALRIAQSEAELISDEAQADLALRRNDGTRPKMTPEQMAKEMSEFLSRGPAVLATKAAAGTKKYDLSKWKYAELRDTINTSCDIELLAACREEFHRRLKVYHAWKSKNKKRNTETEQRAPKSVTDYDFAPFLNNSPQQNPAAQIPARQREIEMNRQQRFFRIPFIRPADQYKDPQSKKKGWWYAHFDGPWIARQMELHPDKPPILLVAGKDDMEMCELNLEETGLTRKRGAEILPRQFEEIWEACGGIQYLQNAIESRQARPTYATAMLQSLLK |  |  | 1.2
